What was measured:
[1] = biological target: PSTPIP1, endogenous, PAPA syndrome patient (human (endogenous in CD14+ cells)) (UniProt O43586); assay: non-reducing SDS-PAGE with Western blot; lysates of CD14+ cells from controls and a PAPA patient, non-reducing conditions, probed with anti-PSTPIP1
[2] = biological target: the molecule itself; assay: as above
[3] = biological target: the molecule itself; assay: non-reducing SDS-PAGE; recombinant PSTPIP1 from E. coli run in the absence of added reducing agent, Coomassie stain

Molecule: PSTPIP1, endogenous, PAPA syndrome patient (from UniProt O43586 1-416) (natural protein)
- stoichiometry N [1]: 2

B1: PSTPIP1 (proline serine threonine phosphatase-interacting protein 1), endogenous, control individuals (natural protein, human (endogenous in CD14+ cells), UniProt O43586 1-416, looked up)
chain: MMPQLQFKDAFWCRDFTAHTGYEVLLQRLLDGRKMCKDMEELLRQRAQAEERYGKELVQIARKAGGQTEINSLRASFDSLKQQMENVGSSHIQLALTLREELRSLEEFRERQKEQRKKYEAVMDRVQKSKLSLYKKAMESKKTYEQKCRDADDAEQAFERISANGHQKQVEKSQNKARQCKDSATEAERVYRQSIAQLEKVRAEWEQEHRTTCEAFQLQEFDRLTILRNALWVHSNQLSMQCVKDDELYEEVRLTLEGCSIDADIDSFIQAKSTGTEPPAPVPYQNYYDREVTPLTSSPGIQPSCGMIKRFSGLLHGSPKTTSLAASAASTETLTPTPERNEGVYTAIAVQEIQGNPASPAQEYRALYDYTAQNPDELDLSAGDILEVILEGEDGWWTVERNGQRGFVPGSYLEKL
notes: PSTPIP1, human, endogenous in CD14+ cells of control individuals (C1, C2); Major species runs at 95-96 kDa (dimer) on a non-reducing gel; minor monomer at 48 kDa and faint multimers; also called CD2BP1; source: endogenous, lysates of human CD14+ cells enriched from PBMC of control individuals
- stoichiometry N [2]: 2

B2: Recombinant human PSTPIP1 protein expressed in E. coli (natural protein, UniProt O43586 1-416, looked up)
chain: B1 chain
notes: PSTPIP1, human, recombinant; monomer runs at 48 kDa; the purification is not described, only that several steps of the recovery need DTT; also called recombinant PSTPIP1; source: E. coli (pHIS8 plasmid), recovered recombinant protein
- stoichiometry N [3]: 2
